Source: patent publication US20180112008A1 (Memorial Sloan Kettering, published 2018)
Changes are numbered by the printed parent chain. Ends that are not written are not given here. * marks the point of attachment. GlcNAc2 = N-linked chitobiose, CC(=O)N[C@@H]1[C@@H](O)[C@H](O[C@@H]2O[C@H](CO)[C@@H](O)[C@H](O)[C@H]2NC(C)=O)[C@@H](CO)O[C@H]1*

B1: 18C6.D12 (antibody, V domains shown)
VH: QVTLKESGPGILQPSQTLSLTCSFSGFSLSTVGMGVGWSRQPSGKGLEWLAHIWWDDEDKYYNPALKSRLTISKDTSKNQVFLKIANVDTADTATYYCTRIGTAQATDALDYWGQGTSVTVSS
VL: DIVMTQAAPSVPVTPGESVSISCRSSKSLLHSNGNTYLYWFLQRPGQSPQRLIYYMSNLASGVPDRFSGRGSGTDFTLRISRVEAEDVGVYYCMQSLEYPLTFGGGTKLEIK
notes: Mouse monoclonal from a hybridoma; also called MUC16 Glycosylation Antibody 18C6
B2: 7B12.B3 (antibody, V domains shown)
VH: B1 VH with T93S
VL: B1 VL with P12S, L30R, H31K, E110K
notes: Mouse monoclonal from a hybridoma; also called MUC16 Glycosylation Antibody 7B12
B3: 19C11.H6 (antibody, V domains shown)
VH: QVNLKESGPGKLQPSQTLSLTCSFSGFSLSTLGMGVGWIRQSSGKGLEWLAHIWWDDDKYYNPALKSRLTISRATSKNQVFLKIVNVGTADTATYYCARIGTAQATDALDYWGQGTSVTVSS
VL: B1 VL with V11I, R79K, E86G, S96G, Y99H
notes: Mouse monoclonal from a hybridoma; Used as 89Zr-DFO-labelled antibody in the internalization assay; also called MUC16 Glycosylation Antibody 19C11

Experiments:
MUC16^c114-N3 = biological target: T1, MUC16^c114-N3 (human, chain 1 pos 1 and pos 24: N-glycosylated Asn (cell-made glycans), written N); assay: FACS, SKOV3-N30 mutc114
T1 construct: MUC16^c114 with Asn30 (Asn1806) changed to Ala, on SKOV3 cells; also called N30 mut c114; SKOV3-N30 mutc114; not shown: hrGFP of the phrGFP II-C vector, fused at the cytoplasmic carboxy-terminus
T1 chain: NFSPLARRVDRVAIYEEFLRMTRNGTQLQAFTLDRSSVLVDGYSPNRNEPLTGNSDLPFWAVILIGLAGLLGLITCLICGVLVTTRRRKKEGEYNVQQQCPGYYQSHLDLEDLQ

MUC16^c114-N2 = biological target: T2, MUC16^c114-N2 (human, chain 1 pos 1 and pos 30: N-glycosylated Asn (cell-made glycans), written N); assay: FACS, SKOV3-N24 mutc114
T2 construct: MUC16^c114 with Asn24 (Asn1800) changed to Ala, on SKOV3 cells; also called N24 mut c114; SKOV3-N24 mutc114; not shown: hrGFP of the phrGFP II-C vector, fused at the cytoplasmic carboxy-terminus
T2 chain: T1 chain with N24A, A30N

MUC16^c114 = biological target: T3, MUC16^c114 (human, capable of N-glycosylation at Asn1, Asn24 and Asn30 ; chain 1 pos 1, 24, 30: Asn capable of N-glycosylation on the transfected cells, written N); assay: FACS, SKOV3 transfectant, goat anti-mouse IgG-PE
T3 construct: The forward primer adds Met-Val before Asn1; also called MUC16^c114-GFP; SKOV3 MUC16^c114; not shown: hrGFP of the phrGFP II-C vector fused at the cytoplasmic carboxy-terminus, with its short cloning linker
T3 chain: T1 chain with A30N

MUC16^c114-N1 = biological target: T4, MUC16^c114-N1 (human, chain 1 pos 24 and pos 30: N-glycosylated Asn (cell-made glycans), written N); assay: FACS, SKOV3 transfectant, goat anti-mouse IgG-PE
T4 construct: MUC16^c114 with Asn1 (Asn1777) changed to Ala, on SKOV3 cells; also called N1 mut c114; SKOV3 MUC16^c114-N1; not shown: hrGFP of the phrGFP II-C vector, fused at the cytoplasmic carboxy-terminus
T4 chain: T1 chain with N1A, A30N

MUC16 18mer + GlcNAc1 = biological target: T5, MUC16 18mer + GlcNAc1 (also: N-linked single GlcNAc, Asn (N4, N10 or both) not given here); assay: sandwich ELISA on 'MUC16 18mer + GlcNAc1'; Blank 0.042
T5 construct: also called 18-mer with a single GlcNAc
T5 peptide: CTRNGTQLQNFTLDRSSV

[1] = biological target: T6, MUC16 nonglycosylated peptide 2 (human); assay: sandwich ELISA on 'MUC16 Nonglycosylated Peptide2'; Blank 0.029
T6 construct: Peptide used to elicit the 4H11 antibody; also called nonglycosylated MUC16 peptide 2
T6 peptide: CTLDRSSVLVDGYSPNRNE

[2] = biological target: T7, biotinylated chitobiose-conjugated 18-mer glycopeptide (human, also: biotinylated, site not given here); assay: binding affinity table of Example 3; target not named there, taken as in Table 9 (Octet BLI, biotinylated chitobiose 18-mer)
T7 construct: Cys plus T22-V38 of MUC16^c114; The range is derived from T22-V38 and the statement that c114 is 1777-1890; the N-terminal Cys is added; also called (GlcNAc2)2-18-mer, biotinylated; 18-mer(chitobiose)2[C-T22-V38]
T7 peptide: Ac-CTRN(GlcNAc2)GTQLQN(GlcNAc2)FTLDRSSV-NH2
Method in brief: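 Binding was measured by biolayer interferometry on a ForteBio Octet QK, with 5 μg/mL biotinylated chitobiose-conjugated 18-mer glycopeptide loaded onto streptavidin biosensors. Excess antigen was washed off, and mouse antibodies were run at 10 μg/mL for association and dissociation steps. Kd, kon and koff came from a 1:1 binding site model with partial fit.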

Binder | geometric mean phycoerythrin (PE) fluorescence (MUC16^c114-N3) | geometric mean phycoerythrin (PE) fluorescence (MUC16^c114-N2) | Mean % PE (MUC16^c114) | Mean % PE (MUC16^c114-N1) | ELISA signal (MUC16 18mer + GlcNAc1) | ELISA signal [1] | Kd [2] | koff [2] | kon [2]
B1 | 1700 | 1830 | 73.1% | 83% | 0.95 | 0.02 | 11.1 nM | 0.000678 s⁻¹ | 
B2 |  | 471 |  |  | 1.03 | 0.02 | 13.8 nM | 0.00104 s⁻¹ | 
B3 | 536 | 486 | 69.3% | 81.7% | 0.96 | 0.03 | 63.7 nM | 0.00242 s⁻¹ | 38000 M⁻¹ s⁻¹
